The record followed here is article PMC10899635, “Q586B2 is a crucial virulence factor during the early stages of Trypanosoma brucei infection that is conserved amongst trypanosomatids” (Nature Communications, 2024).

Where two headings read alike, the source gives them in different places.

Assay [1] deals with T1, native Q586B2 (Trypanosoma brucei brucei AnTat1.1E and …, UniProt Q586B2).
For assay [2], the target named is T2, recombinant Q586B2 protein (Trypanosoma brucei brucei).
T2 chain: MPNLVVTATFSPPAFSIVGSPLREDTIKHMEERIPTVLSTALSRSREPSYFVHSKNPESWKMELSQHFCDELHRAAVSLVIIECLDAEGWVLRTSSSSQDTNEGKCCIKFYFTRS

The target of assay [3] is T3, homologous protein in T. cruzi (Trypanosoma cruzi (assayed strain not …, UniProt Q4D6Q6)).
T3 construct: protein of T. cruzi homologous to Q586B2, detected by Nb39; also called Q4D6Q6; source: endogenous, T. cruzi parasites, fixed and permeabilized
The experiment in a line: flow cytometry on cells; 5 µg HA-tagged Nb on 100 µl of 10^7/ml purified, fixed and permeabilized parasites, on ice 30 min; detected with Alexa Fluor 488 labeled anti-HA IgG. As to conditions: one partner purified. A general note: In flow cytometry, cells or beads pass a laser one at a time.

Assay [4] addresses T1, native Q586B2. The experiment in a line: ELISA; sandwich ELISA: Nb39 coated at 5 µg/ml in PBS; culture medium of in vitro cultured parasites or serum of infected mice (day 6 p.i., diluted 1/2), 2 h at 37 °C; detected with biotinylated Nb39 and streptavidin-HRP. As to conditions: one partner purified. A general note: ELISA stands for enzyme-linked immunosorbent assay.

B1: Nb58 (VHH)
VHH: QVQLQESGGGLVQPGGSLRLSCAASGRSISSIYAMGWYRQAPGKQRELVARLTSGGSSNYADSVKGRFTITRDNAQNTVYLQMNSLKPEDTAVYYCNAEPSRWWLDDDYWGQGTQVTVSS
On to B1, for which the binding result (with native Q586B2 [1]; in assay [2]) was “binds” each time.

B2: Nb36 (VHH)
VHH: QVQLQESGGGLVQPGGSLRLSCAASGFAFSFYWMNWVRQAPGKGLEWVSAINSGGGSTYYADSVKGRFTISRDNAKNTLYLQMNSLKPEDTAVYYCAKGIVQRGEYYGMDYWGKGTQVTVSS
As for B2, the binding result (with native Q586B2 [1]; in assay [2]) was “binds” throughout.

B3: Nb41 (VHH)
VHH: QVQLQESGGGLVQAGGSLRLSCAASGRTFSSYAMGWFRQAPGKEREFIALISWIGGSTAYADSVKGRFTISRDNAKNTLYLQMNSLKPEDTAVYYCATDRIGRHRGPGTQVTVSS
Regarding B3, the binding result (with native Q586B2 [1]; in assay [2]) was “binds” throughout.

B4: Nb53 (VHH)
VHH: QVQLQESGGGSVQAGGSLRLSCSASGYTYSSHCTAWFRQAPGKEREALAAINSRSGTTYYADSVKGRFTISQDNTKNTAYLQMNSLKPEDTATYFCAALSFGCTGPLASLGQGTQVTVSS
For the molecule B4, the binding result (in the assay with native Q586B2 [1]; in assay [2]) was “binds” in each case.

B5: Nb34 (VHH)
VHH: QVQLQESGGGLVQPGGSLRLSCAASGFTFSNSPMNWVRQAPGKGLEWVSAINSGGGSTYYADSVKGRFTISRDNAKNTLYLQMNSLKPEDTAVYYCAKGGRTYYSGSYYSWGMDYWGKGTQVTVSS
Regarding B5, the binding result (in the assay with native Q586B2 [1]; in assay [2]) was “binds” in each case.

B6: Nb32 (VHH)
VHH: QVQLQESGGGLVQPGGSLRLSCAASGFTFSAYAMSWVRQAPGKGLEWVSTIDSGGGSTYYADSVKGRFTISRDNAKKTLYLHMNSLKPEDTAVYYCAKRGYSDYARHVWGQGTQVTVSS
With B6, the binding result (with native Q586B2 [1]; in assay [2]) was “binds” in each case.

B7: Nb39 (VHH)
VHH: QVQLQESGGGLVQPGGSLRLSCTASGSIFSGYAMGWYRQAPGKQRELVAGITSGGSTIYAGSVKGRFTISRDNAKNTVYLQMNSLKPEDTAVYYCKNGTYYSARDYWGQGTQVTVSS
notes: nanobody from a llama immunized with recombinant Q586B2; A biotinylated Nb39 served as detecting agent in the sandwich ELISA; also called anti-Q586B2 Nb39; source: E. coli WK6, periplasmic extraction, purified (His-Trap IMAC, Superdex 75); not shown: HA, C-terminal, kept
B7: the binding result (in assay [3]; with native Q586B2 [4]) was “binds” each time.
